# In paper PMC10159178 (PLOS ONE, 2023):
# Target: wild-type SARS-CoV-2 RBD-His protein (SARS-CoV-2, wild-type, UniProt P0DTC2)
# Assay: SPR
# Details: both partners purified
Binder,Kd [nM],koff [s⁻¹],kon [M⁻¹ s⁻¹],t1/2 [min]
"3D2 human monoclonal antibody against the RBD of SARS-CoV-2 (antibody, V domains shown, also called 3D2 mAb) VH: EVQLVQSGAEVKKPGDSLKISCKGSGYSFANYWIGWVRQKPGKGLEWMGIIYPGDSDTRYSPSSLGQVSISVDKSISTAYLQWSSLKASDTAMYYCARHPIHGYGSGSLYNPDYWGQGTLVTVSS VL: QSVLTQPPSVSAAPGQKVTISCSGSNSNIGINYVSWYQQLPETAPKLLIYENNQRPSGIPDRFSGSKSGTSATLGITGLQTGDEADYYCGTWDTSLGAYVFGTGTKVTVL",0.789,0.000268,339000,43.1
"1D1 human monoclonal antibody against the RBD of SARS-CoV-2 (antibody, V domains shown) VH: EVLLVESGGGLIQPGGSLRLSCAASGFTVSSNYMIWVRQAPGKGLEWVSLIYSGGSTFYADSVKGRFIISRDSSKNTLYLQMNSLRAEDTAVYYCAREPYGDKAWGQGTLVTVSS VL: DIQMTQSPSSLSASVGDRVTITCQASQDINKYLNWYQQKPGKAPKPLISDTSNLQPGVPSRFSGSGAGTDFTLTISSLQPEDIATYYCQQYDNLPITFGQGTRLEIK",0.242,0.00015,620000,–
